The text below walks through data of patent US11078259B2, “Methods and compositions for promoting thermogenic potential” (Joslin Diabetes Center, Inc., priority 2015, dated 2021).

Entries after “also recorded” stand apart in the source; their conditions may differ.

The test system of this test is hBAT progenitors with hUCP1-promoter-Luc/GFP. In words: Transplantation of UCP1 reporter progenitors into nude mice, in vivo bioluminescent imaging. Also noted: species or system BALB/c athymic nude mice. The following applies: mice implanted with hBAT progenitors; 3.3 nM BMP7 pretreatment of progenitors 6 days. The text has this: FIG. 7A depicts a transgenic UCP1 reporter system for measuring UCP1 gene expression. A bicistronic luciferase and green fluorescent protein (GFP) reporter was coupled to a 4.1 kb human UCP1 promoter fragment. FIG. 7B depicts the organization of plasmid pLV.ExBi.P/Puro-hUCP1promoter-Luc(firefly)-T2A-hrGFP, which contains the UCP1 reporter system described in FIG. 7A. FIG. 7C depicts time-lapse microscopy of differentiating hBAT-SVF cells containing the UCP1 reporter system. UCP1 expression was monitored by visualization of GFP. FIG. 7D depicts that in hBAT-SVF and hWAT-SVF cells stably expressing the reporter construct, luciferase activity (Right) was strongly correlated with endogenous UCP1 gene expression (Left) during the course of differentiation (see FIG. 2A and Methods). For determination of UCP1 mRNA levels, total RNAs were isolated on day 0, 2, 3, 5, 9, 12, 15 and 18; for luciferase activity assay, cell lysates were collected on day 0, 6, 9 and 18. Data are presented as fold changes compared to hWAT-SVF on day 0 (mean±s.e.m., n=3). […]
Human immortalized white and brown fat progenitors with hUCP1-promoter-Luc/GFP were grown in the presence and absence of 3.3 nM BMP7 for 6 days to reach confluence. […] The luminescence intensity in regions of interest from each image was quantified to examine the viability of the implanted cells. […]

B1: BMP7: Recombinant human BMP7, an inducer of brown adipogenesis (protein, UniProt P18075 293-431, looked up)
Bone morphogenetic protein 7: STGSKQRSQNRSKTPKNQEALRMANVAENSSSDQRQACKKHELYVSFRDLGWQDWIIAPEGYAAYYCEGECAFPLNSYMNATNHAIVQTLVHFINPETVPKPCCAPTQLNAISVLYFDDSSNVILKKYRNMVVRACGCH
Turning to B1, the “luciferase activity (UCP1 reporter) in vivo” value is “further induced; also recorded: increased further”.
